Data on 16 molecules can be found in US20210403579A1 (DELINIA, published 2021).

The target in one assay is T1, Mouse ST2 (mouse, UniProt P14719 27-332, limits assumed).
T1 construct: also called mouse ST2 protein
T1 sequence (looked up): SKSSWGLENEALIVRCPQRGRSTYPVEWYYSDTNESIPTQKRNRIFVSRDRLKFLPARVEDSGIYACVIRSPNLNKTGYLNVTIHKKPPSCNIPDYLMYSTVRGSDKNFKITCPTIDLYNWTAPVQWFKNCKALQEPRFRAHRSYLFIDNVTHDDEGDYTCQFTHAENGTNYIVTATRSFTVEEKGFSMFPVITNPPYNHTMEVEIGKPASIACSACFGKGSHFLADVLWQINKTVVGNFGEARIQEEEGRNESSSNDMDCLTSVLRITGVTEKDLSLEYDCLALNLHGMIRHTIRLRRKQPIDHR
As to the kind of experiment: SPR (Carterra), antibody immobilized, ST2 analyte, 1:1. How it is done: (§1) Binding of the reformatted human ST2 antibodies to the human and mouse ST2 proteins was evaluated by surface plasmon resonance (SPR), using a high throughput antibody screening and characterization platform from Carterra (Salt Lake City, Utah).

For the next assay, the target named is T2, Human ST2 (human, UniProt Q01638 19-328, limits assumed).
T2 construct: also called human ST2 protein; Interleukin 1 receptor-like 1
T2 sequence (looked up): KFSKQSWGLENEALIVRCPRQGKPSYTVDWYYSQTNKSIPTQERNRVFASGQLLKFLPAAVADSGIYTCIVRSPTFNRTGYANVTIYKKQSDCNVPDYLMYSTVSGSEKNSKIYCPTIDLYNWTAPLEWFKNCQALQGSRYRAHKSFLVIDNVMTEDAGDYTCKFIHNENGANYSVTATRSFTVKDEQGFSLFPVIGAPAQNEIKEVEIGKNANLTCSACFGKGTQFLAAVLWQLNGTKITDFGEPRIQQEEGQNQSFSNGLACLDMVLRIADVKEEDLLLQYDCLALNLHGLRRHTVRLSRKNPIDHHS
The assay is described as above. How it is done: as §1

B1: Human ST2 IgG1 Antibody 78 (antibody, V domains shown)
VH: EVQLLESGGGLVQPGGSLRLSCAASDFNFKNAWMSWVRQAPGKGLEWVSAISGNGAGTYYADSVKGRFTISRDNSKNTLYLQMNSLRAEDTAVYYCARVGETGAFDIWGQGTTVTVSS
VL: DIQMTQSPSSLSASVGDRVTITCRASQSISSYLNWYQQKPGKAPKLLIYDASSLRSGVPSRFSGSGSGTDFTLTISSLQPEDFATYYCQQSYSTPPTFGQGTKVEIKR
notes: IgG1, kappa; also called ST2 Antibody 78
As to B1, in the assay with Mouse ST2, the Kd turned out to be 744 nM, the koff was determined as 0.13 s⁻¹ and the kon is 180000 M⁻¹ s⁻¹.

B2: Human ST2 IgG1 Antibody 106 (antibody, V domains shown)
VH: QVQLVQSGAEVKKPGSSVKVSCKASGYTFTDYYIHWVRQAPGQGLEWMGGIIPIYGTANYAQKFQGRVTITADESTSTAYMELSSLRSEDTAVYYCARTNWGMDVWGQGTTVTVSS
VL: EIVMTQSPATLSVSPGERATLSCRASQGIPSNSLAWYQQKPGQAPRLLIYGTSARASGIPARFSGSGSGTEFTLTISSLQSEDFAVYYCQQYYSTPWTFGQGTKVEIKR
notes: IgG1, kappa
In the assay with Human ST2, B2 had a Kd of 616 nM, a koff of 0.15 s⁻¹ and a kon of 240000 M⁻¹ s⁻¹.

B3: Human ST2 IgG1 Antibody 103 (antibody, V domains shown)
VH: QVQLVQSGAEVKKPGASVKVSCKASGYTFTSYYMHWVRQAPGQGLEWMGWMNPNSGNTGYAQKFQGRVTMTRDTSTSTVYMELSSLRSEDTAVYYCARETSFDYYYGMDVWGQGTTVTVSS
VL: DIQMTQSPSSLSASVGDRVTITCRASQSISNWLAWYQQKPGKAPKLLIYDGSNLGTGVPSRFSGSGSGTDFTLTISSLQPEDFATYYCLQDFTYPLTFGGGTKVEIKR
notes: IgG1, kappa; also called ST2 Antibody 103
B3: in the assay with Mouse ST2, the Kd stood at 211 nM, the koff came out at 0.0058 s⁻¹ and the kon worked out at 27000 M⁻¹ s⁻¹. In the assay with Human ST2, this molecule gave a Kd of 140 nM, a koff of 0.0063 s⁻¹ and a kon of 45000 M⁻¹ s⁻¹.

B4: Human ST2 IgG1 Antibody 70 (antibody, V domains shown)
VH: QVQLVQSGAEVKKPGSSVKVSCKASGYAFTDYFIHWVRQAPGQGLEWMGGIIPIFGTANYAQKFQGRVTITADKSTSTAYMELSSLRSEDTAVYYCARVAYGAFDIWGQGTMVTVSS
VL: EIVMTQSPATLSVSPGERATLSCRASQSVSSSYLAWYQQKPGQAPRLLIYGASTRATGIPARFSGSGSGTEFTLTISSLQSEDFAVYYCQQYNNWPLTFGGGTKVEIKR
notes: IgG1, kappa; also called ST2 Antibody 70
In the case of B4, in the assay with Mouse ST2, the Kd came out at 3900 nM, the koff came to 0.13 s⁻¹ and the kon was determined as 33000 M⁻¹ s⁻¹.

B5: Human ST2 IgG1 Antibody 104 (antibody, V domains shown)
VH: QVQLVQSGAEVKKPGSSVKVSCKASGYTFTNYAIIWVRQAPGQGLEWMGGIIPVFGTADYTQTFQGRVTITADESTSTAYMELSSLRSEDTAVYYCARVSTNYYDSSGYYAFDYWGQGTLVTVSS
VL: DIQMTQSPSSLSASVGDRVTITCRASQSISSYLNWYQQKPGKAPKLLIYDASSLQSGVPSRFSGSGSGTDFTLTISSLQPEDFATYYCQQTYHTPWTFGQGTKVEIKR
notes: IgG1, kappa
In the assay with Mouse ST2, B5 returned an equilibrium dissociation constant (Kd) of 684 nM, a koff of 0.096 s⁻¹ and a kon of 140000 M⁻¹ s⁻¹. Further, in the assay with Human ST2, the Kd worked out at 121 nM, the koff came out at 0.061 s⁻¹ and the kon worked out at 510000 M⁻¹ s⁻¹.

B6: Human ST2 IgG1 Antibody 89 (antibody, V domains shown)
VH: EVQLLESGGGLVKPGGSLRLSCAASGFTFSSYWMSWVRQAPGKGLEWVSAISGTAINTYYADSVKGRFTISRDDSKNTLYLQMNSLKTEDTAVYYCARVRRDSSGGGAFDIWGQGTMVTVSS
VL: DIQMTQSPSSLSASVGDRVTITCRASQGISNNLNWYQQKPGKAPKLLIYAASSLQTGVPSRFSGSGSGTDFTLTISSLQPEDFATYYCQQSYSTPPTFGQGTKVEIKR
notes: IgG1, kappa; also called ST2 Antibody 89
In the assay with Mouse ST2, B6 registered a Kd of 989 nM, a koff of 0.1 s⁻¹ and a kon of 100000 M⁻¹ s⁻¹.

B7: Human ST2 IgG1 Antibody 108 (antibody, V domains shown)
VH: QVQLVQSGAEVKKPGASVKVSCKASGNTFTAYYMHWVRQAPGQGLEWMGIINPSGGSTSYAQKFQGRVTMTRDTSTSTVYMELSSLRSEDTAVYYCARGVGATNYWGQGTLVTVSS
VL: DIQMTQSPSSLSASVGDRVTITCRASQGISNNLNWYQQKPGKAPKLLIYAASSLQSGVPSRFSGSGSGTDFTLTISSLQPEDFATYYCQQGFNFPLTFGGGTKVEIKR
notes: IgG1, kappa; also called ST2 Antibody 108
Turning to B7, in the assay with Human ST2, the affinity, expressed as Kd, was 28 nM; the koff amounted to 0.0056 s⁻¹; the kon stood at 200000 M⁻¹ s⁻¹.

B8: Human ST2 IgG1 Antibody 83 (antibody, V domains shown)
VH: EVQLLESGGGLVKPGGSLRLSCAASGFTFSSYWMSWVRQAPGKGLEWVSAIGTAGDTYYPGSVKGRFTISRDDSKNTLYLQMNSLKTEDTAVYYCAILRRDKVWPFDYWGQGTLVTVSS
VL: DIQMTQSPSSLSASVGDRVTITCRASQSISSHLHWYQQKPGKAPKLLIYAASSLQSGVPSRFSGSGSGTDFTLTISSLQPEDFATYYCQQSYSSPVTFGGGTKVEIKR
notes: IgG1, kappa; also called ST2 Antibody 83
As for B8, in the assay with Mouse ST2, binding was characterised by a dissociation constant (Kd) of 438 nM, the koff came out at 0.063 s⁻¹ and the kon was found to be 140000 M⁻¹ s⁻¹.

B9: Human ST2 IgG1 Antibody 98 (antibody, V domains shown)
VH: EVQLLESGGGLVKPGGSLRLSCAASGFTFSSYWMSWVRQAPGKGLEWVSAISGTAINTYYADSVKGRFTISRDDSKNTLYLQMNSLKTEDTAVYYCARVRRDSSGGGAFDIWGQGTMVTVSS
VL: DIQMTQSPSSLSASVGDRVTITCRASQGISNNLNWYQQKPGKAPKLLIYAASSLQTGVPSRFSGSGSGTDFTLTISSLQPEDFATYYCQQSYSTPPTFGQGTKVEIKR
notes: IgG1, kappa; also called ST2 Antibody 98
Regarding B9, in the assay with Mouse ST2, the Kd was found to be 975 nM, the koff is 0.12 s⁻¹ and the kon came out at 120000 M⁻¹ s⁻¹.

B10: Human ST2 IgG1 Antibody 105 (antibody, V domains shown)
VH: EVQLLESGGGLVQPGGSLRLSCAASGFTFSSYAMHWVRQAPGKGLEWVAVMSYDGRHEYYADSVKGRFTISRDNSKNTLYLQMNSLRAEDTAVYYCASTDYDIGGYSLPLDYWGQGTLVTVSS
VL: DIQMTQSPSSLSASVGDRVTITCRASQSVSSWLAWYQQKPGKAPKLLIYAASNLQSGVPSRFSGSGSGTDFTLTISSLQPEDFATYYCQQSYDVPWTFGQGTRLEIKR
notes: IgG1, kappa
In the assay with Mouse ST2, B10 had a Kd of 172 nM, a koff of 0.07 s⁻¹ and a kon of 410000 M⁻¹ s⁻¹. In the assay with Human ST2, this molecule registered a Kd of 256 nM, a koff of 0.095 s⁻¹ and a kon of 370000 M⁻¹ s⁻¹.

B11: Human ST2 IgG1 Antibody 107 (antibody, V domains shown)
VH: QVQLVQSGAQVKKPGASVKVSCKASGGTFSSYTISWVRQAPGQGLEWMGVIYPSGDITVYAQEFQGRVTMTRDTSTSTVYMELSSLRSEDTAVYYCARAWARYFDYWGQGTLVTVSS
VL: DIQMTQSPSSLSASVGDRVTITCQASQDISNYLNWYQQKPGKAPKLLIYDASNLQAGVPSRFSGSGSGTDFTLTISSLQPEDFATYYCQQSYSSPITFGQGTRLEIKR
notes: IgG1, kappa
With B11, in the assay with Human ST2, the Kd is 465 nM, the koff is 0.062 s⁻¹ and the kon came to 130000 M⁻¹ s⁻¹.

B12: Human ST2 IgG1 Antibody 101 (antibody, V domains shown)
VH: QVQLVQSGAEVKKPGASVKVSCKASGYTFSTYDINWVRQAPGQGLEWVGIISPSGGWTTYAQKFQGRVTMTRDTSTSTVYMELSSLRSEDTAVYYCARVNYDILTGQGRGYYFDYWGQGTLVTVSS
VL: DIQMTQSPSSLSASVGDRVTITCQATQDIADYLNWYQQKPGKAPKLLIYKASSLESGVPSRFSGSGSGTDFTLTISSLQPEDFATYYCQQSYSTPTFGPGTKVDIKR
notes: IgG1, kappa; also called ST2 Antibody 101
In the assay with Human ST2, B12 yielded a Kd of 590 nM, a koff of 0.11 s⁻¹ and a kon of 190000 M⁻¹ s⁻¹.

B13: Human ST2 IgG1 Antibody 102 (antibody, V domains shown)
VH: QVQLVQSGAEVKKPGSSVKVSCKASGYIFTRYYVNWVRQAPGQGLEWMGGIIPMFGTSNYAQKFQGRVTITADESTSTAYMELSSLRSEDTAVYYCARSSGYDSFKIDYWGQGTLVTVSS
VL: not shown
notes: IgG1, kappa
In the assay with Human ST2, B13 yielded a Kd of 270 nM, a koff of 0.065 s⁻¹ and a kon of 240000 M⁻¹ s⁻¹.

B14: Human ST2 IgG1 Antibody 76 (antibody, V domains shown)
VH: QVQLVQSGAEVKKPGSSVKVSCKASGYTFTDYYMHWVRQAPGQGLEWMGVIIPVLGAAKYAQKFQGRVTITADESTSTAYMELSSLRSEDTAVYYCAKGWGAFDIWGQGTMVTVSS
VL: EIVMTQSPATLSVSPGERATLSCRASQSVSSYLAWYQQKPGQAPRLLIYGASTRASGIPARFSGSGSGTEFTLTISSLQSEDFAVYYCQQYYSYPWTFGQGTKVEIKR
notes: IgG1, kappa; also called ST2 Antibody 76
In the assay with Mouse ST2, B14 displayed a Kd of 778 nM, a koff of 0.14 s⁻¹ and a kon of 180000 M⁻¹ s⁻¹.

B15: Human ST2 IgG1 Antibody 86 (antibody, V domains shown)
VH: QVQLVQSGAEVKKPGSSVKVSCKASGGTFSNYAISWVRQAPGQGLEWMGGIIPIFGTANYAQKFQGRVTITADESTSTAYMELSSLRSEDTAVYYCAKDLGGWFNLFDPWGQGTLVTVSS
VL: EIVMTQSPATLSVSPGERATLSCRASQGVSSYLAWYQQKPGQAPRLLIYGASTRATGIPARFSGSGSGTEFTLTISSLQSEDFAVYYCQQYRSFPLTFGGGTKVEIKR
notes: IgG1, kappa; also called ST2 Antibody 86
Regarding B15, in the assay with Mouse ST2, binding was characterised by a dissociation constant (Kd) of 507 nM, the koff is 0.098 s⁻¹ and the kon came out at 190000 M⁻¹ s⁻¹.

B16: Human ST2 IgG1 Antibody 99 (antibody, V domains shown)
VH: EVQLLESGGGLVQPGGSLRLSCAASGFTFSDYYMNWVRQAPGKGLEWVSTISGFGESTFYADSVKGRFTISRDNSKNTLYLQMNSLRAEDTAVYYCARLGAARAFDIWGQGTTVTVSS
VL: DIQMTQSPSSLSASVGDRVTITCRASQSIGSWMAWYQQKPGKAPKLLIYAASTLQSGVPSRFSGSGSGTDFTLTISSLQPEDFATYYCQQSYTTPITFGPGTKVDIKR
notes: IgG1, kappa; also called ST2 Antibody 99
In the assay with Mouse ST2, B16 came in with a Kd of 419 nM, a koff of 0.098 s⁻¹ and a kon of 230000 M⁻¹ s⁻¹.

As usually defined, the Kd is the constant that tells how readily two partners part at equilibrium. A word on the koff: it is the rate constant with which the complex falls apart. Low readings indicate slow dissociation, high ones fast dissociation. A word on the kon: it is the rate constant with which the complex forms.
